Results from the supplement of paper PMC10567573.

B1: MFF (parent)
chain: YTEGISQRMRVPEKLKVAPPNADL
B2: FBXO3 (parent)
chain: DEEERRRRVFDVPIRRRRCSRLF

Variants of: B1
Test: protein stability index of a GFP-peptide fusion (GPS, HEK-293T) (PSI 1-6); higher = more stable
Details: c terminus: a fixed tail appended
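Also: lentivirally expressed fusions sorted by FACS into six bins by GFP to DsRed ratio, PSI derived from sequencing read proportions per bin multiplied by bin number.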

Protein stability index, by site and new letter:
L15: K 3.19, H 2.91
K14: G 3.28, V 2.72, F 2.96, W 2.11, M 3.39, L 2.87, C 3.07, D 3.13, T 3.06, P 3.32, R 3.55, E 3.17, Y 2.44, I 2.71, N 3.44, Q 3.41, S 3.38, H 2.88, A 3.06
P20: E 3.55, Y 2.04, Q 3.44, V 3.06, S 2.65, N 3.12, C 2.44, T 2.69, K 3.51, L 2.24, F 2.01, D 3.04, A 2.98, W 2.35, M 2.66, G 2.91, R 2.75, I 2.75, H 2.69
P12: T 2.09, M 2.59, N 2.96, E 2.69, Q 2.78, Y 2.58, G 2.46, R 2.82, D 2.73, V 2.64, W 2.46, K 2.57, L 2.42, S 2.53, I 2.21, F 1.88, H 2.77, C 2.14, A 3.06
R10: W 3.33, V 2.49, Y 2.08
K16: S 3.62, I 3.23, W 2.49, M 2.77, L 2.62, Q 2.67, R 2.34, G 3.27, D 3.87, E 2.93, N 3.33, Y 2.81, C 2.81, P 2.83, F 2.8, V 2.9, A 2.68, T 3.16, H 3.21
A22: D 3.34, K 3.28, C 2.62, S 2.87, L 2.39, G 2.96, Q 2.81, W 2.45, Y 2.56, R 2.77, T 2.91, P 2.9, H 2.69, I 2.45, N 2.92, M 2.68, F 2.83, V 3.09, E 3.33

Variants of: B2
Test: as above
Details: c terminus: native

Protein stability index, by site and new letter:
E2: N 3.05, K 1.36, G 2.58, S 2.21, M 1.9, D 3.08, P 2.15, A 1.49, C 1.71, T 1.65, W 2.25, Q 3.19, I 2.52, V 1.95, F 1.97, H 1.79, L 1.45, R 2.33
D1: M 2.97, A 2.65, Y 2.57, F 1.92, Q 1.69, L 1.97, S 1.85, T 2.2, C 1.58, V 2.34, N 2.05, K 2.27, G 1.91, I 2.83, W 1.8, P 2.55, H 1.87, E 3.14
E3: K 2.68, A 1.88, H 2.18, Y 1.84, T 1.81, P 2.32, I 1.99, N 2.79, S 1.91, M 2.53, G 2.19, V 2.54, D 2.63, R 2.34, L 1.48, C 1.94, Q 2.57
E4: D 3.66, F 2.13, Q 2.72, P 2.29, I 2.16, N 1.92, K 1.98, A 1.98, M 3.23, C 2.58, L 1.59, R 2.9, H 1.99, G 2.48
